B1: ceTIR-1^TIR (residues 703-872) [C. elegans] / itself (parent)
chain: MLSKQIDVFISYRRSTGNQLASLIKVLLQLRGYRVFIDVDKLYAGKFDSSLLKNIQAAKHFILVLTPNSLDRLLNDDNCEDWVHKELKCAFEHQKNIIPIFDTAFEFPTKEDQIPNDIRMITKYNGVKWVHDYQDACMAKVVRFITGELNRTTPTTKEMPSISRKTTQQR

Variants of: B1
Assay: gel filtration (size exclusion chromatography)
Details: with itself

Row | elution volume | Variant
1 | 17.2 mL | chain 1 L27H

From article PMC10675840, “Structure-function analysis of ceTIR-1/hSARM1 explains the lack of Wallerian axonal degeneration in C. elegans” (Cell reports, 2023)
